Target: the molecule itself
Assay: cross-linking

B1: CstR (CsoR-like sulfurtransferase repressor), wild type, Staphylococcus aureus strain Newman (natural protein, UniProt Q9XBC0 1-86, looked up)
chain: MNYDKKMINRINRIQGQLNGIIKMMEEGKDCKDVITQISASKSSLQRLMGIIISENLIECVKVAADDEESSQELINEAVNLLVKSK
stoichiometry N: 2

From article PMC4264537 (Molecular microbiology, 2014)
